Reference: US20050186575A1

Experiments:
[1] = target: HR1 peptide of the SARS-CoV spike protein (SARS-CoV); experiment: pooled complexes heated 5 min in 1x Tricine sample buffer, Tricine SDS-PAGE
[2] = target: MHV-A59 spike protein (mouse hepatitis virus strain A59) (UniProt P11224); experiment: cell-based or functional assay
[3] = target: T1, HR1 peptide of the MHV-A59 spike protein (amino acid residues 953-1048) (mouse hepatitis virus strain A59), P11224
[4] = target: T1, HR1 peptide of the MHV-A59 spike …; experiment: pooled complexes heated 5 min in 1x Tricine sample buffer, Tricine SDS-PAGE

T1 sequence (P11224 953-1048, tags left off): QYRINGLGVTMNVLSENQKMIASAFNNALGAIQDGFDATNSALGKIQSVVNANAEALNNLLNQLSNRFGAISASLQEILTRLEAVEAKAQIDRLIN

## HR2 peptide of the SARS-CoV spike protein
[1]
  temperature of dissociation of the complex: 70 °C

## HR2 peptide of the MHV-A59 spike protein (amino acid residues 1216-1254)
[2]
  EC50 of inhibition of MHV infection of LR7 cells: 900 nM
  spike-mediated cell-cell fusion (luciferase activity) (fold reduction at 10 µM): 1000

B1: HR2 peptide of the MHV-A59 spike protein (amino acid residues 1216-1254) (peptide)
peptide: GPIEGRDLSLDFEKLNVTLLDLTYEMNRIQDAIKKLNESYINLKE
modifications: not checked
[3]
  temperature of full dissociation of the complex: 90 °C
  temperature of partial dissociation of the complex: 80 °C
  temperature up to which the complex remained intact: 70 °C
[4]
  temperature of dissociation of the complex: 90 °C
